The data set has as its system MS2 coat protein. The data set can be described thus: apparent KD of MS2 coat protein; designed switch direction (-1 OFF switch, 1 ON switch): -1; higher = weaker reporter binding. The gist of the method:
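Transcription of designed RNA switches on Illumina chips was done by stalled E. coli RNA polymerase. SNAP-549-labelled MS2 coat protein was then titrated in doubling steps from 0.7 or 1.5 nM to 3 µM, with steps of 0.8–1.5 h at the lowest and 10–20 min at the highest concentration. The per-design median over clusters of curve-fitted normalised fluorescence is reported as apparent KD.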

The mark [1] stands for this setting: input ligand: microRNA oligo, concentration not stated.
Where [2] appears, read: Eterna round: R95, input ligand: microRNA oligo, concentration not stated.
The mark [3] stands for this setting: Eterna round: R95, input ligand: FMN 200 uM.
Where [4] appears, read: Eterna round: R95, input ligand: none.

“GUGCCGCGAGGAUAUACAGACGGGUCCAUUACGUGUCUCGGACUUGAGGAUCACCCAAGUAGAAGGCGUCUCAG [salish99_ex2_r4_625] (Eterna round: R97, puzzle: Exclusion 2)”: the “apparent KD of MS2 coat protein” value stood at 51.3 nM (input ligand: FMN 200 uM) and 40.2 nM (input ligand: none).

“GUGGCACAUGAGGAUCACCCAUGUCAGGAUAUCGCGUGGUUUUUUUCGGCCGCGCGCGCGAGAAGGGACGUCUU (Eterna round: R96, puzzle: Exclusion 1)”: the “apparent KD of MS2 coat protein” value reads like this: (input ligand: FMN 200 uM) 26.8 nM; under setting [1], 22.2 nM; (input ligand: none) 30.9 nM.

Regarding “GUGGCACAUGAGGAUCACCCAUGUCAGGAUAUCGCGUGGUUUUUUUCGGCCGCGCGCGCGAGAAGGGACGUCUU (puzzle: Exclusion 1)”, the “apparent KD of MS2 coat protein” value under setting [2] was determined as 27.2 nM.

With “GUGGGUUACAUGAGGAUCACCCAUGUAUAGUGGGAAAAAAUAUAGGAUAUAAUAUAAAAAUUAUAUUAGAAGGAUAGAGACUAG [AK ExNG3-1] (Eterna round: R96, puzzle: Exclusion NG 3)”, the “apparent KD of MS2 coat protein” value (input ligand: FMN 200 uM) turned out to be 419 nM, the “apparent KD of MS2 coat protein” value under setting [1] was 216 nM and the “apparent KD of MS2 coat protein” value (input ligand: none) came to 418 nM.

Regarding “GUGGUACAUGAGGAUCACCCAUGUUAGGAUAUCGCGUGAGGUUUUACUUCCGCACACGCGAGAAGGGACGUCUU (puzzle: Exclusion 1)”, the “apparent KD of MS2 coat protein” value under setting [2] worked out at 41.4 nM.

On to “GUGGUACAUGAGGAUCACCCAUGUUAGGAUAUCGCGUGAGGUUUUGCUUCCGCGCGCGCGAGAAGGGACGUCUU (puzzle: Exclusion 1)”, for which the “apparent KD of MS2 coat protein” value under setting [2] was determined as 23.2 nM.

On to “GUGUAAUGUGAGGAUAUGUGUUUCGUUAGCUGCACAGAAGGCACAACAUGAGGAUCACCCAUGUGGGCAGGGCC [Eternabot (L1) Solution 10] (Eterna round: R97, puzzle: Exclusion 6)”, for which the “apparent KD of MS2 coat protein” value (input ligand: FMN 200 uM) came out at 59.4 nM and the “apparent KD of MS2 coat protein” value (input ligand: none) came out at 19 nM.

“GUGUACAGAGGAUAUGCACGAGUAGUUACGAAAGUAACUAUACAUGAGGAUCACCCAUGUAGAAGGCUGUACAC [Dot plot directed v3] (puzzle: Exclusion 2)”: the “apparent KD of MS2 coat protein” value under setting [2] is 12.2 nM.

With “GUGUAGUAAGGAUAUACAUGAGGAUCACCCAUGUGAGUAAGAUAGAAUAAGAUAAAGUGUAGAAGGUAUAGUGU [Excluse me!!! 16 - Jieux - Exclusion 3] (puzzle: Exclusion 3)”, the “apparent KD of MS2 coat protein” value under setting [3] came to 42.6 nM, the “apparent KD of MS2 coat protein” value under setting [2] was determined as 42.8 nM and the “apparent KD of MS2 coat protein” value under setting [4] was determined as 48.9 nM.

As to “GUGUAGUCAGGAUAUACAUAGGAAGAUAAUAUAAUAUAAGUACAUGAGGAUCACCCAUGUAGAAGGGACAGUGU [Excluse me!! 9 - Jieux - Exclusion 2] (puzzle: Exclusion 2)”, the “apparent KD of MS2 coat protein” value under setting [2] was 35.6 nM.

Turning to “GUGUGCAGAGGAUAUACAGAGGAAAAUAAUAAAUAAUAUUGACAUGAGGAUCACCCAUGUAGAAGGCUGAGUGU [Excluse me!! 25 - Jieux - Exclusion 2] (puzzle: Exclusion 2)”, the “apparent KD of MS2 coat protein” value runs as follows: under setting [3], 38.3 nM; under setting [2], 37.4 nM; under setting [4], 39.7 nM.

For “GUGUUGGUAGGAUAUCCACCGACAAACAUGAGGAUCACCCAUGUGACGCUCCCUUGUCUUGGAGAAGGGCCGGCAU [Riritequla] (puzzle: Exclusion 5)”, the “apparent KD of MS2 coat protein” value under setting [2] was 42.4 nM.

As to “GUUAAACAUGAGGAUCACCCAUGUAAGGAUAUGCUGCGGUAGAGAUGAAGUGAAUGCAGCAGAAGGUACAAUUG [Mat - Mod of JL D54] (puzzle: Exclusion 1)”, the “apparent KD of MS2 coat protein” value under setting [2] worked out at 80.5 nM.

In the case of “GUUAAACAUGAGGAUCACCCAUGUAAGGAUAUGCUGCGGUCGCGCUGACGUGACUGCAGCAGAAGGUACAAAUG [Mat - Mod of JL D57] (puzzle: Exclusion 1)”, the “apparent KD of MS2 coat protein” value under setting [2] came to 76.4 nM.

As to “GUUAAGGUAGGAUAUACGAUAAUAUAGGGUAGAGAUAUAACACAUGAGGAUCACCCAUGUAGAAGGACCAAUUG [Mat - Exclusion 2 - Mod of my Tesla design - D55] (puzzle: Exclusion 2)”, under setting [2], the “apparent KD of MS2 coat protein” value was found to be 26.2 nM.

The values are drawn from the supplement of paper PMC9170038.
